Patent US6906033 (dated 2005)
Residue numbers refer to the chain shown, from its start.

T1: human factor XIIa (human, UniProt P00748 20-615, biotinylated with Biotin Ester (Zymed); sites not stated)
T1 chain: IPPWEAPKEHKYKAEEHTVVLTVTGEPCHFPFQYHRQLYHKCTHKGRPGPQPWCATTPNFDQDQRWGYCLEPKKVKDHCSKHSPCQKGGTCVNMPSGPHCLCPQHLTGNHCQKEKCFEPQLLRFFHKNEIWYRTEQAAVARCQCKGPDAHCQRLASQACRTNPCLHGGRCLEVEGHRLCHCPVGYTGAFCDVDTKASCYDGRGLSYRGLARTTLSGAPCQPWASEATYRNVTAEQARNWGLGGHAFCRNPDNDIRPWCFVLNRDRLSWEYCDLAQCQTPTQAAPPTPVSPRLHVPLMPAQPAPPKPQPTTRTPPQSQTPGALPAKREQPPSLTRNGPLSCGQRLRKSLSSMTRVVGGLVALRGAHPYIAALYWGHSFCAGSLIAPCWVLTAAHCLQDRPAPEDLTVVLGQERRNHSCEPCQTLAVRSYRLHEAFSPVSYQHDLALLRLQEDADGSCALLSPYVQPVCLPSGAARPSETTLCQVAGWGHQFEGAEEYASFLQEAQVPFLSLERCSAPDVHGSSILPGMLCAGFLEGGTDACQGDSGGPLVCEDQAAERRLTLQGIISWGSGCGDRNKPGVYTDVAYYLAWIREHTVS

T2: human factor Xa (human, UniProt P00742 41-179; P00742 235-488)
T2 chain 1: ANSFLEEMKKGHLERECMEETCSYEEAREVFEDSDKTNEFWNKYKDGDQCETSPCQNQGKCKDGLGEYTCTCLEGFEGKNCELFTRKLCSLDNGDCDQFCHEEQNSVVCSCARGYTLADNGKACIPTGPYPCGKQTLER
T2 chain 2: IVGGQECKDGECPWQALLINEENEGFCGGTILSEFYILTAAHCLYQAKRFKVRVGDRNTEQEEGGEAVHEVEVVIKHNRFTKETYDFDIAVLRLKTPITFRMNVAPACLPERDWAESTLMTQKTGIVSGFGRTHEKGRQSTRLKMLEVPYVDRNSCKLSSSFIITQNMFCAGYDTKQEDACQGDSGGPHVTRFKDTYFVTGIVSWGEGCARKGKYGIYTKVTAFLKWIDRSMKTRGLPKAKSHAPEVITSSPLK

B1: TW6186 (protein)
chain: EVVREVCSEQAETGPCRAMHSRWYFDVTEGKCAPFFYGGCYGNRNNFDTEEYCMAVCGSAI
B2: TW6188 (protein)
chain: B1 chain with H20I, S21Y
B3: TW6187 (protein)
chain: B1 chain with H20I, S21F
B4: TW6189 (protein)
chain: B1 chain with H20I, S21W
B5: DD185 (peptide)
chain: B1 chain with M19A, H20I, S21F, Y41G
B6: KPI (-4-57) (peptide)
chain: LDKREVVREVCSEQAETGPCRAMISRWYFDVTEGKCAPFFYGGCGGNRNNFDTEEYCMAVCGSAI
B7: wild-type KPI (-4→57) (peptide)
chain: B6 chain
B8: TW6185 (peptide)
chain: B1 chain with S21W, Y41G
B9: TW6167 (protein)
chain: B1 chain with T13P, H20I, Y41G
B10: DD110 (protein)
chain: B1 chain with M19L, H20I, Y41G
B11: DD108 (protein)
chain: B1 chain with M19A, H20I, Y41G
B12: DD109 (protein)
chain: B1 chain with M19I, H20I, Y41G

Biological target: T1, human factor XIIa
Test: enzyme inhibition

Binder | Ki [nM]
B1 | 186
B2 | 419
B3 | 92

Biological target: T3, human plasma kallikrein (human, UniProt P03952 20-638)
Test: enzyme inhibition

T3 sequence (P03952 20-638): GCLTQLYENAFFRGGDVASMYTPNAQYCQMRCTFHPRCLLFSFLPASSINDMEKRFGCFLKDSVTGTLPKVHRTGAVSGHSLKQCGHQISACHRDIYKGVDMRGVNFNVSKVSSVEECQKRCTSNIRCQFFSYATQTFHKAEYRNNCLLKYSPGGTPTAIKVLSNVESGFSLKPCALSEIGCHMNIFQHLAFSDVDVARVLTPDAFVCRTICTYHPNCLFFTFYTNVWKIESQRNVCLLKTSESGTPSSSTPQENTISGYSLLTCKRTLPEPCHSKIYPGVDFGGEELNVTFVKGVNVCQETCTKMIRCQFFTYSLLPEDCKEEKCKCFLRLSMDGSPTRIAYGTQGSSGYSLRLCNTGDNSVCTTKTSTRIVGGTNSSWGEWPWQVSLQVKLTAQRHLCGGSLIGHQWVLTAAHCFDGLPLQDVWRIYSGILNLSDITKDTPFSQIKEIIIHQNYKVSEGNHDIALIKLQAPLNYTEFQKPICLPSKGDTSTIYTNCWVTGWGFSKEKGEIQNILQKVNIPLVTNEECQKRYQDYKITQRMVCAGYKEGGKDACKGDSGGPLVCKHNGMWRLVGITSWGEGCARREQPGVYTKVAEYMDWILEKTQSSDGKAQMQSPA

Binder | Ki [nM]
B1 | 0.48
B4 | 4
B2 | 4
B3 | 3.8

Biological target: T2, human factor Xa
Test: enzyme inhibition

Binder | Ki [nM]
B1 | 11
B4 | 34
B2 | 24
B3 | 15

Biological target: Plasmin
Test: enzyme inhibition

Binder | Ki [nM]
B5 | 8.71

Biological target: Plasmin
Test: enzyme inhibition
Remark: another data set of the same source

Binder | Ki [nM]
B6 | 34

Biological target: T3, human plasma kallikrein
Test: enzyme inhibition
Remark: another data set of the same source

Binder | Ki [nM]
B7 | 45

Biological target: Plasmin
Test: enzyme inhibition
Remark: another data set of the same source

Binder | Ki [nM]
B8 | 18.6

Biological target: T1, human factor XIIa
Test: enzyme inhibition
Remark: another data set of the same source

Binder | Ki [nM]
B9 | 3640
B10 | 624
B11 | 1600
B12 | 1680
B7 | 3720

Biological target: T3, human plasma kallikrein
Test: enzyme inhibition
Remark: another data set of the same source

Binder | Ki [nM]
B9 | 61
B10 | 2.1
B11 | 1.7
B12 | 9.5
B7 | 45

Biological target: T2, human factor Xa
Test: enzyme inhibition
Remark: another data set of the same source

Binder | Ki [nM]
B9 | 288
B10 | 55
B11 | 123
B12 | 421
B7 | 161
